Results published in article PMC4654935.

Assays:
[1] = biological target: Rab8A wild-type (recombinant) (human) (UniProt P61006)
[2] = biological target: Rab8A S111A (recombinant) (human) (UniProt P61006)
[3] = biological target: Rab8A S111E (recombinant) (human) (UniProt P61006)

- k cat/K M of Rabin8-catalysed mantGDP release from Rab8A (1 uM Rab, 100 uM GDP, 0.5 uM Rabin8, 25°C) [1]: 100000 M⁻¹ s⁻¹
- k cat/K M of Rabin8-catalysed mantGDP release from Rab8A (1 uM Rab, 100 uM GDP, 0.5 uM Rabin8, 25°C) [2]: 87000 M⁻¹ s⁻¹
- k cat/K M of Rabin8-catalysed mantGDP release from Rab8A (1 uM Rab, 100 uM GDP, 0.5 uM Rabin8, 25°C) [3]: 7600 M⁻¹ s⁻¹
B1: Rabin8(153-237) (domain or fragment)
chain: VREKGYERLKEELAKAQRELKLKDEECERLSKVRDQLGQELEELTASLFEEAHKMVREANIKQATAEKQLKEAQGKIDVLQAEVA
